In general, Kd refers to the equilibrium constant for the complex coming apart. A high value points to a looser complex.

The source of these data is patent publication US20110021746A1 (published 2011).

The target of this test is T1, TNF-α (UniProt P01375 77-233, biotinylated).
T1 construct: also called TNF-alpha; biotintylated TNF-α soluble protein (R&D Systems)
Kind of test: Octet BLI, biotinylated TNF-α on streptavidin tips. As to the method:
The target protein was biotintylated TNF-α soluble protein (R&D Systems) and is at a concentration of 0.25 ug/ml for loading onto the streptavidin sensor tips. […] The Octet was run using the manufacturers protocol for Basic Kinetic Assay.

T1 sequence (P01375 77-233 limits assumed): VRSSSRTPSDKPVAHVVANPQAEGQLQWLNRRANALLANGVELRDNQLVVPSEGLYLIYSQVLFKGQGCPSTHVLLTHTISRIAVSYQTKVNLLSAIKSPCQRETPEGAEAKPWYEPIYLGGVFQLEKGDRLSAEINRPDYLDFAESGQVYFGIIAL

B1: TNF-α binder R41A6 (designed binder)
chain: NVSPPRRARVTDATETTITISWEHSEDDCYSYIYYFQVDAVPANGQTPIQRTISGYETYYTITGLQPGTDYKIYLYTLNSAGFCPPYSKPVVIDAST
notes: 14FN3 variant; for the Octet expressed from pET-20b with pelB signal and C-terminal hexahistidine tag; also called TNF A6
As to B1, the Kd fell in the range of 20 to 100 nM.
